# Target: HIV Tat transcription factor (HIV)
# Assay: cell-based or functional assay
substance,measurement,value
human TOE1 (Target of Egr1) (from UniProt Q96GM8 1-510),decrease in Tat driven transactivation of the HIV LTR/TAR luciferase reporter in HeLa cells,50 to 80%

# — patent publication US20130065819A1
